According to paper doi:10.1101/2020.08.31.20184481:

Columns and labels:
[1] = molecular target: R1003W GFP-βIISp (human) (UniProt Q01082); assay: pull-down
[2] = molecular target: F-actin (UniProt P68135); assay: co-sedimentation

Sequence of R1003W GFP-βIISp (human) (Q01082 whole entry R1003W): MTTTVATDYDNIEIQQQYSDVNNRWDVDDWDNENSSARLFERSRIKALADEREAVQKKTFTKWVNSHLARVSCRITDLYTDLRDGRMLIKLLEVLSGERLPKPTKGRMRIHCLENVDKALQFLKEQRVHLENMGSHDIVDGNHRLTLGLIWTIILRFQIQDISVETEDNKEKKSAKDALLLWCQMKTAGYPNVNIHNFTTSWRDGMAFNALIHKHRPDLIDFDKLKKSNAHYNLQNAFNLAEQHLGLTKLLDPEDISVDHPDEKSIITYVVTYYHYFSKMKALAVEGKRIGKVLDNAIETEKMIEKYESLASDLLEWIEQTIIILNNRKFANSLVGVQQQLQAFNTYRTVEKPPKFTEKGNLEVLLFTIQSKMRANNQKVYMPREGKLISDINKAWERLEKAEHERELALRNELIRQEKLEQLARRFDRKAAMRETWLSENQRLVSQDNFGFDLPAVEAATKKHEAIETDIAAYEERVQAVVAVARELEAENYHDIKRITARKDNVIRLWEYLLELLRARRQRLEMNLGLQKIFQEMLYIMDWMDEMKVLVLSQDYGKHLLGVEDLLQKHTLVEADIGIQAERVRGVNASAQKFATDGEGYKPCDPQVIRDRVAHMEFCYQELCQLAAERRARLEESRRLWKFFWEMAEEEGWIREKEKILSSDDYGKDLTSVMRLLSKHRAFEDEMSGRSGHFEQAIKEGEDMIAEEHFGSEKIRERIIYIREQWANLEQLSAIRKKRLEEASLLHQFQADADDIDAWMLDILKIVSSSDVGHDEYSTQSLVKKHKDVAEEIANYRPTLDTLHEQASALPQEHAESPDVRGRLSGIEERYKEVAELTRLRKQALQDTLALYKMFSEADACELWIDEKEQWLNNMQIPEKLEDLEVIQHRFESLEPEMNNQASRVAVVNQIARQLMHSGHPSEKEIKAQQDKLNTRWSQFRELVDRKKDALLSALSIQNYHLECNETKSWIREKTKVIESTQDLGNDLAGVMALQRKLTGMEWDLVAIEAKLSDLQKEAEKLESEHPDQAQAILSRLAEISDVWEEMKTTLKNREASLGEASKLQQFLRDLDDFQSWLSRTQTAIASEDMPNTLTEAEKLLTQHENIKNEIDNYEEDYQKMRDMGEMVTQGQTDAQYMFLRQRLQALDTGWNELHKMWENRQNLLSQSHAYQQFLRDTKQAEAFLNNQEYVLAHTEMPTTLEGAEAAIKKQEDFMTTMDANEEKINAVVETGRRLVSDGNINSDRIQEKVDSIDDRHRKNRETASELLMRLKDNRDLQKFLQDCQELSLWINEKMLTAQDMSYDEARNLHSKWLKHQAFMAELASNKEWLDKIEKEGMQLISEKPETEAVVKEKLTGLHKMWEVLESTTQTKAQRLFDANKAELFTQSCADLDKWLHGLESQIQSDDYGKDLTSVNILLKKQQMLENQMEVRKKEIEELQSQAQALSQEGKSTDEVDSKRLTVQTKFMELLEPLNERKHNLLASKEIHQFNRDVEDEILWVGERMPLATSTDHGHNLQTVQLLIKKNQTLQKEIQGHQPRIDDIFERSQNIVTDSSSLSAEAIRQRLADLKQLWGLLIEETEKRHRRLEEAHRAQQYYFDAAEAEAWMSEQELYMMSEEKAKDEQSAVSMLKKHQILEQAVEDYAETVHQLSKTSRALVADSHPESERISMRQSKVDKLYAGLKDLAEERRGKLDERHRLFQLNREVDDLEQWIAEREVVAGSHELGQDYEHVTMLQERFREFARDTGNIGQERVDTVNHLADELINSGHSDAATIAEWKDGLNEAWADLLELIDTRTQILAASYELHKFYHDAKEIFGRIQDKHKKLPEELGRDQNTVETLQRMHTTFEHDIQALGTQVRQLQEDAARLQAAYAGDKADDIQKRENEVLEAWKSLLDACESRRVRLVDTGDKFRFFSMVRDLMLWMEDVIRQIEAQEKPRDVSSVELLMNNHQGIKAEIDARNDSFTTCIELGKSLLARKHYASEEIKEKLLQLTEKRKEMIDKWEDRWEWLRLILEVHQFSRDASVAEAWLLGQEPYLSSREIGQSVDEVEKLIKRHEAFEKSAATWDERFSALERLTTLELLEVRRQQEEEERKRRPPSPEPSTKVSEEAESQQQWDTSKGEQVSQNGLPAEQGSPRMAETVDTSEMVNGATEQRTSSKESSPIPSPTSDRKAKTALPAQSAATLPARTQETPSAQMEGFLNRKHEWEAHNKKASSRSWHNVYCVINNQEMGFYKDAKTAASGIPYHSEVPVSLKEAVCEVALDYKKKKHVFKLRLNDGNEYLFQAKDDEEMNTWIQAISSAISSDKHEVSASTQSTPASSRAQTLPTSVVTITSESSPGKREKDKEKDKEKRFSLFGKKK

Row | percent less association with F-actin than WT [2] [%] | Substance | other results
1 | – | mCherry-tagged αII-spectrin, Q13813-2 1-2477 | percent reduction of association against WT GFP-βIISp [1]: 40%
2 | – | purified full-length βII-spectrin p.A850G (from UniProt Q01082-1 1-2364) (natural protein) | percent higher F-actin binding than WT [2]: 50%
3 | 70 | purified full-length βII-spectrin p.I159_Q160del (from UniProt Q01082-1 1-2364) (natural protein) | –
4 | 40 | purified full-length βII-spectrin p.T59I (from UniProt Q01082-1 1-2364) (natural protein) | –
